Experimental findings from patent US20240376218A1 (published 2024) are described below.

For experiment [1], the target named is T1, human CCR8 (human, UniProt P51685 1-355). Kind of experiment: cell-based or functional assay.
In experiment [2] the target is T2, murine CCR8 (mouse, UniProt P56484 1-353).
T2 sequence: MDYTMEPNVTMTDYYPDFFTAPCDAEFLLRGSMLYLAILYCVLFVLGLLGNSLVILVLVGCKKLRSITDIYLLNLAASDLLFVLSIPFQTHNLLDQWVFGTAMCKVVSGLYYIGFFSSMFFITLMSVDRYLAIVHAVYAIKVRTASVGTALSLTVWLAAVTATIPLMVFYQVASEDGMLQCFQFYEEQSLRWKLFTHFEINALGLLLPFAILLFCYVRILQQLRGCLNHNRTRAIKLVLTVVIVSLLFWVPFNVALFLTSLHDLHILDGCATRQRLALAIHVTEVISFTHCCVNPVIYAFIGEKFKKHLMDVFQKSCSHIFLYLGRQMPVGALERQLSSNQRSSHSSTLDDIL
Kind of experiment: cell-based or functional assay.

Experiment [3] has as its target T3, murine CCR8 (mouse, UniProt P56484 1-353).
T3 sequence: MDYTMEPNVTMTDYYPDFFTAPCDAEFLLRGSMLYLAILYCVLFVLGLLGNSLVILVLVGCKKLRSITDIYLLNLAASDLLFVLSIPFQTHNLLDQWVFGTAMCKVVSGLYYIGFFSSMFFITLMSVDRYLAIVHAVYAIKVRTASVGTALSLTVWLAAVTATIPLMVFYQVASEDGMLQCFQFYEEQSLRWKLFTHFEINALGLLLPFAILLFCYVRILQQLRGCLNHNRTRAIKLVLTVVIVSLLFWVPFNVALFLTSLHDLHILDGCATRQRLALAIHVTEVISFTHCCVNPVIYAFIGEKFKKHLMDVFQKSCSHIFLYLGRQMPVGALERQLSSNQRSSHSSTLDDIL
Kind of experiment: cell-based or functional assay. The source holds these as a separate data set.

Experiment [4] has as its target T2, murine CCR8. Kind of experiment: cell-based or functional assay. This is another data set of the same source.
For experiment [5], the target named is T1, human CCR8. Kind of experiment: cell-based or functional assay. The source holds these as a separate data set.
In experiment [6] the target is T1, human CCR8. Kind of experiment: cell-based or functional assay. The source holds these as a separate data set.
Experiment [7] concerns the target T4, human CCR8 (human, UniProt P51685 1-355).
T4 construct: also called hCCR8; P51685_CCR8_HUMAN
Kind of experiment: FACS, HuT78 cells endogenously expressing human CCR8. In general terms: Flow cytometry measures light scatter and fluorescence of single cells or particles in a stream.

The target of experiment [8] is T5, FcRn immobilized on FcRn column (Roche, Order No. 8128057001).
T5 construct: bought prepacked column; also called immobilized FcRn
Kind of experiment: FcRn affinity chromatography, linear pH gradient.
Description: 30 μL of each antibody (1 mg/mL in equilibration buffer) was applied to the column.

T5 sequence (P55899 24-297, chain 1 of 2): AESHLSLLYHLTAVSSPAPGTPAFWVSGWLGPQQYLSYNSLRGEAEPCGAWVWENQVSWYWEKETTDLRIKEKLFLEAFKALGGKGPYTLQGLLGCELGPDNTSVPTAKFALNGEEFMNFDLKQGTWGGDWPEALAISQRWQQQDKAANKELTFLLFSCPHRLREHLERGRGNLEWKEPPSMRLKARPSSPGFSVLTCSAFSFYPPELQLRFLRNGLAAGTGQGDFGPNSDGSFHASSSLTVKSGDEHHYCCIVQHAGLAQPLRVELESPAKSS
T5 sequence (P61769 21-119, chain 2 of 2, further chain): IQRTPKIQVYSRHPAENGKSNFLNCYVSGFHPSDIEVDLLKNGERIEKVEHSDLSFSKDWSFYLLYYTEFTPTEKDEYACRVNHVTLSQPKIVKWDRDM

B1: TPP-18205 (antibody, human IgG1, lambda, V domains shown)
VH: EVQLLESGGGLVQPGGSLRLSCAASGFTFSSYAMSWVRQAPGKGLEWVSGIRWNSGSKGYAGSVKGRFTISRDNSKNTLYLQMNSLRAEDTAVYYCVRSGNYYVGYHGMDVWGQGTLVTVSS
VL: QSVLTQPPSASGTPGQRVTISCSGGNSNIGTYFVSWYQQLPGTAPKLLIYTNNQRPSGVPDRFSGSKSGTSASLAISGLRSEDEADYYCETWDSNTRVFGGGTKLTVLG
Turning to B1, the “Ca flux assay IC50 (nM), block of signaling induced by CCL1 at 80 ng/ml; CHO cells expressing human CCR8” value in the experiment with human CCR8 [1] worked out at 1.6 nM.

B2: TPP-17577 (antibody, human IgG1, lambda, V domains shown)
VH: EVQLLESGGGLLQPGGSLRLSCAASGFTFSNAWMSWVRQAPGKGLEWVAVISYDGRNKYSADSVKGRFTISRDNSKNTLYLQMNSLRAEDTAVYYCARGLPYGYWGQGTLVTVSS
VL: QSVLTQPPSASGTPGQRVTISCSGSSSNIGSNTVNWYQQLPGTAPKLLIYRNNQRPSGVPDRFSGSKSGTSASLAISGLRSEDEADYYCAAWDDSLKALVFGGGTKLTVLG
Regarding B2, in the experiment with human CCR8 [1], the “Ca flux assay IC50 (nM), block of signaling induced by CCL1 at 80 ng/ml; CHO cells expressing human CCR8” value came out at 93.8 nM.

B3: TPP-14095 (antibody, human IgG1, lambda, V domains shown)
VH: EVQLLESGGGLVQPGGSLRLSCAASGFTFSSYGMHWVRQAPGKGLEWVSAISGSGGSTYYADSVKGRFTISRDNSKNTLYLQMNSLRAEDTAVYYCARGRQLGSWGQGTLVTVSS
VL: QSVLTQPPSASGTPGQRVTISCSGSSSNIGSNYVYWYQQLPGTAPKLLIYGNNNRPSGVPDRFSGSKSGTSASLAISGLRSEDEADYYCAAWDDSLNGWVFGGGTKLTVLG
Regarding B3, the “Ca flux assay IC50 (nM), block of signaling induced by CCL1 at 40 ng/ml; CHO cells expressing murine CCR8” value with murine CCR8 [2] was 1.65 nM.

B4: TPP-15285 (antibody, mouse IgG2a)
heavy: EVQLLESGGGLVQPGGSLRLSCAASGFTFSDYGVHWVRQAPGKGLEWVSGVSWNGSRTHYADSVKGRFTISRDNSKNTLYLQMNSLRAEDTAVYYCVTRGAWGQGTLVTVSSAKTTAPSVYPLAPVCGDTTGSSVTLGCLVKGYFPEPVTLTWNSGSLSSGVHTFPAVLQSDLYTLSSSVTVTSSTWPSQSITCNVAHPASSTKVDKKIEPRGPTIKPCPPCKCPAPNLLGGPSVFIFPPKIKDVLMISLSPIVTCVVVDVSEDDPDVQISWFVNNVEVHTAQTQTHREDYNSTLRVVSALPIQHQDWMSGKEFKCKVNNKDLPAPIERTISKPKGSVRAPQVYVLPPPEEEMTKKQVTLTCMVTDFMPEDIYVEWTNNGKTELNYKNTEPVLDSDGSYFMYSKLRVEKKNWVERNSYSCSVVHEGLHNHHTTKSFSRTPGK
light: QSVLTQPPSASGTPGQRVTISCSGSSFNIGSHFVYWYQQLPGTAPKLLIYKNNQRPSGVPDRFSGSKSGTSASLAISGLRSEDEADYYCAAWDDSLNGPVFGGGTKLTVLGQPKSSPSVTLFPPSSEELETNKATLVCTITDFYPGVVTVDWKVDGTPVTQGMETTQPSKQSNNKYMASSYLTLTARAWERHSSYSCQVTHEGHTVEKSLSRADCS
As for B4, the “ADCC EC50 (pM); murine CCR8 expressing HEK293 target cells, primary murine NK effector cells” value with murine CCR8 [3] was found to be 111 pM.

B5: TPP-15285 (antibody, mouse IgG2a)
heavy: EVQLLESGGGLVQPGGSLRLSCAASGFTFSDYGVHWVRQAPGKGLEWVSGVSWNGSRTHYADSVKGRFTISRDNSKNTLYLQMNSLRAEDTAVYYCVTRGAWGQGTLVTVSSAKTTAPSVYPLAPVCGDTTGSSVTLGCLVKGYFPEPVTLTWNSGSLSSGVHTFPAVLQSDLYTLSSSVTVTSSTWPSQSITCNVAHPASSTKVDKKIEPRGPTIKPCPPCKCPAPNLLGGPSVFIFPPKIKDVLMISLSPIVTCVVVDVSEDDPDVQISWFVNNVEVHTAQTQTHREDYNSTLRVVSALPIQHQDWMSGKEFKCKVNNKDLPAPIERTISKPKGSVRAPQVYVLPPPEEEMTKKQVTLTCMVTDFMPEDIYVEWTNNGKTELNYKNTEPVLDSDGSYFMYSKLRVEKKNWVERNSYSCSVVHEGLHNHHTTKSFSRTPGK
light: QSVLTQPPSASGTPGQRVTISCSGSSFNIGSHFVYWYQQLPGTAPKLLIYKNNQRPSGVPDRFSGSKSGTSASLAISGLRSEDEADYYCAAWDDSLNGPVFGGGTKLTVLGQPKSSPSVTLFPPSSEELETNKATLVCTITDFYPGVVTVDWKVDGTPVTQGMETTQPSKQSNNKYMASSYLTLTARAWERHSSYSCQVTHEGHTVEKSLSRADCS
Take B5: the “ADCP EC50 (pM); murine CCR8 expressing HEK293 target cells, murine bone marrow derived M2 macrophages” value with murine CCR8 [4] is 402 pM.

B6: TPP-20955 (antibody, human IgG1, lambda, V domains shown)
VH: EVQLLESGGGLVQPGGSLRLSCAASGFTFSSYGMHWVRQAPGKGLEWVSAIKWGGGSHGYADSVKGRFTISRDNSKNTLYLQMNSLRAEDTAVYYCARGHHKGYDGRFFDYWGQGTLVTVSS
VL: QSVLTQPPSVSGAPGQRVTISCTGSSSNIGAGYNVHWYQQLPGTAPKLLIYTNNRRPSGVPDRFSGSKSGTSASLAISGLRSEDEADYYCAAWDASLSGWVFGGGTKLTVLG
B6: the “Ca flux assay IC50 (nM), block of signaling induced by CCL1 at 60 ng/ml; CHO cells expressing human CCR8” value with human CCR8 [5] worked out at 0.52 nM. Further, the “Ca flux assay Span ratio (from max to min), block of signaling induced by CCL1 at 60 ng/ml; CHO cells expressing human CCR8” value in the experiment with human CCR8 [6] is about 11400.

B7: TPP-17578 (antibody, human IgG1, lambda, V domains shown)
VH: EVQLLESGGGLVQPGGSLRLSCAASGFTFSNAWMSWVRQAPGKGLEWVSGINWNGGSTGYADSVKGRFTISRDNSKNTLYLQMNSLRAEDTAVYYCVRTYSGHYGPYFDNWGQGTLVTVSS
VL: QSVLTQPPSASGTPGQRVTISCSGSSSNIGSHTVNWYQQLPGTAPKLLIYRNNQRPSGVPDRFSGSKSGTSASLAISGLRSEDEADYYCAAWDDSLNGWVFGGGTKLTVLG
For B7, the “Ca flux assay IC50 (nM), block of signaling induced by CCL1 at 80 ng/ml; CHO cells expressing human CCR8” value in the experiment with human CCR8 [1] was found to be 4.53 nM.

B8: TPP-21045 (antibody, human IgG1, lambda, V domains shown)
VH: EVQLLESGGGLVQPGGSLRLSCAASGFTFSSAWMSWVRQAPGKGLEWVSGISWSGGSTGYALSVKGRFTISRDNSKNTLYLQMNSLRAEDTAVYYCARTYSGHYGPFFDYWGQGTLVTVSS
VL: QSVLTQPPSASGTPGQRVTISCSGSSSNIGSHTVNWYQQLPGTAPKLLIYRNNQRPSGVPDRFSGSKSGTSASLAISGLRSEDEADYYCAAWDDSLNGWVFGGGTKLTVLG
Consider B8, for which, in the experiment with human CCR8 [5], the “Ca flux assay IC50 (nM), block of signaling induced by CCL1 at 60 ng/ml; CHO cells expressing human CCR8” value is 0.29 nM.

B9: TPP-27495 (antibody, human IgG1, lambda)
heavy: EVQLLESGGGLVQPGGSLRLSCAASGFTFSSYGMHWVRQAPGKGLEWVSAINWNGGSTGYADSVKGRFTISRDNSKNTLYLQMNSLRAEDTAVYYCARGHHSGYDGRFFDYWGQGTLVTVSSASTKGPSVFPLAPSSKSTSGGTAALGCLVKDYFPEPVTVSWNSGALTSGVHTFPAVLQSSGLYSLSSVVTVPSSSLGTQTYICNVNHKPSNTKVDKKVEPKSCDKTHTCPPCPAPELLGGPSVFLFPPKPKDTLYITREPEVTCVVVDVSHEDPEVKFNWYVDGVEVHNAKTKPREEQYNSTYRVVSVLTVLHQDWLNGKEYKCKVSNKALPAPIEKTISKAKGQPREPQVYTLPPSRDELTKNQVSLTCLVKGFYPSDIAVEWESNGQPENNYKTTPPVLDSDGSFFLYSKLTVDKSRWQQGNVFSCSVMHEALHNHYTQKSLSLSPGK
light: not shown
notes: 70% afucosylated
In the case of B9, it took 3.25 nM to reach a half-maximal effect with human CCR8 [7] (EC50). That is a single-digit nanomolar value.

B10: TPP-27495 (antibody, human IgG1, lambda)
heavy: EVQLLESGGGLVQPGGSLRLSCAASGFTFSSYGMHWVRQAPGKGLEWVSAINWNGGSTGYADSVKGRFTISRDNSKNTLYLQMNSLRAEDTAVYYCARGHHSGYDGRFFDYWGQGTLVTVSSASTKGPSVFPLAPSSKSTSGGTAALGCLVKDYFPEPVTVSWNSGALTSGVHTFPAVLQSSGLYSLSSVVTVPSSSLGTQTYICNVNHKPSNTKVDKKVEPKSCDKTHTCPPCPAPELLGGPSVFLFPPKPKDTLYITREPEVTCVVVDVSHEDPEVKFNWYVDGVEVHNAKTKPREEQYNSTYRVVSVLTVLHQDWLNGKEYKCKVSNKALPAPIEKTISKAKGQPREPQVYTLPPSRDELTKNQVSLTCLVKGFYPSDIAVEWESNGQPENNYKTTPPVLDSDGSFFLYSKLTVDKSRWQQGNVFSCSVMHEALHNHYTQKSLSLSPGK
light: not shown
modifications: 70% afucosylated
In the case of B10, the “pH at Elution” value in experiment [8] was 7.88 pH.

A word on the EC50: it is the concentration needed to bring the measured effect to its halfway point.
